Assay results published in paper PMC4615246 (Nucleus, 2015).

Tests used:
Experiment in all cases: LacI/LacO array recruitment in cells
[1] = molecular target: T1, LacI-CFP-Nup107 (human, UniProt P57740 1-925)
T1 sequence: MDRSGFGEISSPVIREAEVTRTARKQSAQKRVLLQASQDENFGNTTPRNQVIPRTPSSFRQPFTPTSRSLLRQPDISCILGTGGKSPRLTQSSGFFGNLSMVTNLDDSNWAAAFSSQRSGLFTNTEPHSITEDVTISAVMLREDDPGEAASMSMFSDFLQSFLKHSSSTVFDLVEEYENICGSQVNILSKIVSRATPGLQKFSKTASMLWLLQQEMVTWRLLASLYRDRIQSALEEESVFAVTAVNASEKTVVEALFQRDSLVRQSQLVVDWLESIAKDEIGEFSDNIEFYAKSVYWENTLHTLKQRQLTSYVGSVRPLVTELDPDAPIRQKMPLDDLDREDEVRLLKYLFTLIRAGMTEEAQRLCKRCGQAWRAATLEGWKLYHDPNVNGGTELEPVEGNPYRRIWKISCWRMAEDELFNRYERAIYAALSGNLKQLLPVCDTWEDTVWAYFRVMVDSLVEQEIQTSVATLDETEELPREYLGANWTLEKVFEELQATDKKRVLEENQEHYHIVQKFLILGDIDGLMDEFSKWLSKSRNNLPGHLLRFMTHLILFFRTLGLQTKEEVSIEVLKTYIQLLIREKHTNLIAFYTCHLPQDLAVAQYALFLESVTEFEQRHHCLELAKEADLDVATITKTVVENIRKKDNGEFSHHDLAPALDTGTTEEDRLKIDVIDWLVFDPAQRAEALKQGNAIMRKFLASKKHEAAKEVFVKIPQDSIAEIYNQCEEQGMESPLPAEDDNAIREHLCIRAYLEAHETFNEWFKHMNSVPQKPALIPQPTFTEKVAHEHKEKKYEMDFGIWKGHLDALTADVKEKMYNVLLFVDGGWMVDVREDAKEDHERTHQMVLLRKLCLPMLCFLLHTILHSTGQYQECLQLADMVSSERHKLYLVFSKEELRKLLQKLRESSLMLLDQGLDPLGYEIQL

[2] = molecular target: T2, LacI-CFP-Nup50 (human, UniProt Q9UKX7 1-468)
T2 sequence: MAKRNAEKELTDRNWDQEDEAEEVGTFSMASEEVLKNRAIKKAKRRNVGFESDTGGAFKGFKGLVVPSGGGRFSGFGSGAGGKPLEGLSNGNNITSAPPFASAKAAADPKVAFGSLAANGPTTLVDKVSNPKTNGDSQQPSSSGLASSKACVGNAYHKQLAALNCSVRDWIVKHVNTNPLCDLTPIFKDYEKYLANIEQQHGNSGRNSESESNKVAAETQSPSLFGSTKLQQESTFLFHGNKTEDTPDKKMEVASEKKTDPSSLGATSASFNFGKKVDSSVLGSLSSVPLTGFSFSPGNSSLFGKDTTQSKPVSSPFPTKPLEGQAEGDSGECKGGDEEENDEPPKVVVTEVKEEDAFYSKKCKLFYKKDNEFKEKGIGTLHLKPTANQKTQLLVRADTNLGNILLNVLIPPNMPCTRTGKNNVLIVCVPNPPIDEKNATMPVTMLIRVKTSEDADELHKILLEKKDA

[3] = molecular target: T3, LacI-CFP-Nup153 (human, UniProt P49790 1-1475)
T3 sequence: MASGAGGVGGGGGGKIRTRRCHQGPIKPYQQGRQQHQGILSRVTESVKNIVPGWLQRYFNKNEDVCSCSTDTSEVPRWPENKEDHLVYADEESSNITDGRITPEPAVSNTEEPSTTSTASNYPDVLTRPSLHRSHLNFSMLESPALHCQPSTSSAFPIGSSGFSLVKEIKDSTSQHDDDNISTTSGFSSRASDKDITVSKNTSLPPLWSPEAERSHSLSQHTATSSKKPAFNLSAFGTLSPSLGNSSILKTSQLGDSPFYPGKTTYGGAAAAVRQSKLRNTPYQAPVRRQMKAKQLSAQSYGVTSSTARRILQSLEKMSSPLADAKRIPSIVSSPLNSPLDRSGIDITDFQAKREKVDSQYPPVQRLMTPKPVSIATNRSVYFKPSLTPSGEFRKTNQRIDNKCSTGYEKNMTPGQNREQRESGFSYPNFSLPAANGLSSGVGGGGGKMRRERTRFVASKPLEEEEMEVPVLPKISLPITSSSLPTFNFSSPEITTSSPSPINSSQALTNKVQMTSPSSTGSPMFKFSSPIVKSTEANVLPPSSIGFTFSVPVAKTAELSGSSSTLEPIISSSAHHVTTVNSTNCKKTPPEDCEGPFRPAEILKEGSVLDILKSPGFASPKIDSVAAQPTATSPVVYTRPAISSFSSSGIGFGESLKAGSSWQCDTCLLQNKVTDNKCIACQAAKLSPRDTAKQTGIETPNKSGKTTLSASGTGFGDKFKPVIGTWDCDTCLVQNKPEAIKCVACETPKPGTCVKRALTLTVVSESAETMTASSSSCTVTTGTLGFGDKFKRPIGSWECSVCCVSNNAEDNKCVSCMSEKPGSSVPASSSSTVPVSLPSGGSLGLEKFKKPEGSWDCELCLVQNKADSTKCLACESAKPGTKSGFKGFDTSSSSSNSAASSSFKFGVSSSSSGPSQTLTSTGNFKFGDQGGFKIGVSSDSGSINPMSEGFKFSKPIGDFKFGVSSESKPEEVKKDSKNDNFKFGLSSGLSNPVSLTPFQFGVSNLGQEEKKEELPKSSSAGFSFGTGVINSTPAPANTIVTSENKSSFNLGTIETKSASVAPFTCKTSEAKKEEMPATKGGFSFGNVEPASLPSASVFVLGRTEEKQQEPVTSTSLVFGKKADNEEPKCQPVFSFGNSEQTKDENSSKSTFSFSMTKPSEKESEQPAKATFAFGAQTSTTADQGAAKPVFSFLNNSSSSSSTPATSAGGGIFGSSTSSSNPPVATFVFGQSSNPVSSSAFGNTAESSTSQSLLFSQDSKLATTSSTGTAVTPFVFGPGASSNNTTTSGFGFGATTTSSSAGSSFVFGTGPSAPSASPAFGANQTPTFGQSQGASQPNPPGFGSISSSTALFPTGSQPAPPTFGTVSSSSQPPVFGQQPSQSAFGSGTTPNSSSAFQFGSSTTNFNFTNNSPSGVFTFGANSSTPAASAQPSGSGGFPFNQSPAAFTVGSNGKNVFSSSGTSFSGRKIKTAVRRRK

B1: Nup85 (endogenous) (natural protein)
chain: MEELDGEPTVTLIPGVNSKKNQMYFDWGPGEMLVCETSFNKKEKSEMVPSCPFIYIIRKDVDVYSQILRKLFNESHGIFLGLQRIDEELTGKSRKSQLVRVSKNYRSVIRACMEEMHQVAIAAKDPANGRQFSSQVSILSAMELIWNLCEILFIEVAPAGPLLLHLLDWVRLHVCEVDSLSADVLGSENPSKHDSFWNLVTILVLQGRLDEARQMLSKEADASPASAGICRIMGDLMRTMPILSPGNTQTLTELELKWQHWHEECERYLQDSTFATSPHLESLLKIMLGDEAALLEQKELLSNWYHFLVTRLLYSNPTVKPIDLHYYAQSSLDLFLGGESSPEPLDNILLAAFEFDIHQVIKECSIALSNWWFVAHLTDLLDHCKLLQSHNLYFGSNMREFLLLEYASGLFAHPSLWQLGVDYFDYCPELGRVSLELHIERIPLNTEQKALKVLRICEQRQMTEQVRSICKILAMKAVRNNRLGSALSWSIRAKDAAFATLVSDRFLRDYCERGCFSDLDLIDNLGPAMMLSDRLTFLGKYREFHRMYGEKRFADAASLLLSLMTSRIAPRSFWMTLLTDALPLLEQKQVIFSAEQTYELMRCLEDLTSRRPVHGESDTEQLQDDDIETTKVEMLRLSLARNLARAIIREGSLEGS
In the case of B1, the “percent of transfected cells showing colocalization” value (“percent” for short) [1] is reported as 88%, the “percent” value [2] is reported as 32% and the “percent” value [3] is reported as 58%.
